Here are results for twelve variants from the FLAb antibody collection (doi:10.7554/elife.23156).

Sequences and labels used below:
B1: scFv; the commonest letter at each place (parent)
chain 1: EVKLDETGGGLVQPGRPMKLSCVASGFTFSDYWMNWVRQSPEKGLEWVAQIRNKPYNYETYYSDSVKGRFTISRDDSKSSVYLQMNNLRVEDMGIYYCTGSYYGMDYWGQGTSVTVS
chain 2: DVVMTQTPLSLPVSLGDQASISCRSSQSLVHSNGNTYLRWYLQKPGQSPKVLIYKVSNRFSGVPDRFSGSGSGTDFTLKISRVEAEDLGVYFCSQSTHVPWTFGGGTKLEIK

In the data set “fluorescein” the parent is B1. In words: Kd (Tite-Seq). Particulars: with fluorescein; format: scFv 4-4-20, heavy + light.
Variants of B1 are the subject of data set [1]. In words: yeast surface expression (ratio to wild type); higher = more expressed. Particulars: format: scFv 4-4-20, heavy + light.

chain 1 EVKLDETGGGLVQPGRPMKLSCVASGFTFSDYWMNWVRQSPEKGLEWVAQIRNKPYNYETYYSDSVKGRFTISRDDSKSSVYLQMNNLRVEDMGIYYCTGSYYGMDYGVQGTSVTVS chain 2 DVVMTQTPLSLPVSLGDQASISCRSSQSLVHSNGNTYLRWYLQKPGQSPKVLIYKVSNRFSGVPDRFSGSGSGTDFTLKISRVEAEDLGVYFCSQSTHVPWTFGGGTKLEIK [chain 1 W108G G109V]: in the data set with fluorescein, the Kd is not below 10000 nM. Also, the yeast surface expression in data set [1] was 0.228.
The matching figures for chain 1 EVKLDETGGGLVQPGRPMKLSCVASGFTFSDYWMNWVRQSPEKGLEWVAQIRNKPYNYETYYSDSVKGRFTISRDDSKSSVYLQMNNLRVEDMGIYYCTGSYYGMDYHGQGTSVTVS chain 2 DVVMTQTPLSLPVSLGDQASISCRSSQSLVHSNGNTYLRWYLQKPGQSPKVLIYKVSNRFSGVPDRFSGSGSGTDFTLKISRVEAEDLGVYFCSQSTHVPWTFGGGTKLEIK [chain 1 W108H]: 4.68 nM and 0.333.
The matching figures for chain 1 EVKLDETGGGLVQPGRPMKLSCVASGFTFSDYWMNWVRQSPEKGLEWVAQIRNKPYNYETYYSDSVKGRFTISRDDSKSSVYLQMNNLRVEDMGIYYCTGSYYGMDYGGQGTSVTVS chain 2 DVVMTQTPLSLPVSLGDQASISCRSSQSLVHSNGNTYLRWYLQKPGQSPKVLIYKVSNRFSGVPDRFSGSGSGTDFTLKISRVEAEDLGVYFCSQSTHVPWTFGGGTKLEIK [chain 1 W108G]: 102 nM and 0.48.
The matching figures for chain 1 EVKLDETGGGLVQPGRPMKLSCVASGFTFSDYWMNWVRQSPEKGLEWVAQIRNKPYNYETYYSDSVKGRFTISRDDSKSSVYLQMNNLRVEDMGIYYCTGSYYGMDYKGQGTSVTVS chain 2 DVVMTQTPLSLPVSLGDQASISCRSSQSLVHSNGNTYLRWYLQKPGQSPKVLIYKVSNRFSGVPDRFSGSGSGTDFTLKISRVEAEDLGVYFCSQSTHVPWTFGGGTKLEIK [chain 1 W108K]: 22.1 nM and 0.504.
As for chain 1 EVKLDETGGGLVQPGRPMKLSCVASGFTFSDYWMNWVRQSPEKGLEWVAQIRNKPYNYETYYSDSVKGRFTISRDDSKSSVYLQMNNLRVEDMGIYYCTGSYYGMDYIGQGTSVTVS chain 2 DVVMTQTPLSLPVSLGDQASISCRSSQSLVHSNGNTYLRWYLQKPGQSPKVLIYKVSNRFSGVPDRFSGSGSGTDFTLKISRVEAEDLGVYFCSQSTHVPWTFGGGTKLEIK [chain 1 W108I], the dissociation constant (Kd) in the data set with fluorescein is not above 0.316 nM. Also, the yeast surface expression in data set [1] came to 0.882.
For the variant chain 1 EVKLDETGGGLVQPGRPMKLSCVASGFTFSDYWMNWVRQSPEKGLEWVAQIRNKPYNYETYYSDSVKGRFTISRDDSKSSVYLQMNNLRVEDMGIYYCTGSYYGMDYLGQGTSVTVS chain 2 DVVMTQTPLSLPVSLGDQASISCRSSQSLVHSNGNTYLRWYLQKPGQSPKVLIYKVSNRFSGVPDRFSGSGSGTDFTLKISRVEAEDLGVYFCSQSTHVPWTFGGGTKLEIK [chain 1 W108L], the Kd with fluorescein was not above 0.316 nM. For the same variant, the yeast surface expression in data set [1] was found to be 0.827.
The matching figures for chain 1 EVKLDETGGGLVQPGRPMKLSCVASGFTFSDYWMNWVRQSPEKGLEWVAQIRNKPYNYETYYSDSVKGRFTISRDDSKSSVYLQMNNLRVEDMGIYYCTGSYYGMDYFGQGTSVTVS chain 2 DVVMTQTPLSLPVSLGDQASISCRSSQSLVHSNGNTYLRWYLQKPGQSPKVLIYKVSNRFSGVPDRFSGSGSGTDFTLKISRVEAEDLGVYFCSQSTHVPWTFGGGTKLEIK [chain 1 W108F]: not above 0.316 nM and 0.644.
The matching figures for chain 1 EVKLDETGGGLVQPGRPMKLSCVASGFTFSDYWMNWVRQSPEKGLEWVAQIRNKPYNYETYYSDSVKGRFTISRDDSKSSVYLQMNNLRVEDMGIYYCTGSYYGMDYKLQGTSVTVS chain 2 DVVMTQTPLSLPVSLGDQASISCRSSQSLVHSNGNTYLRWYLQKPGQSPKVLIYKVSNRFSGVPDRFSGSGSGTDFTLKISRVEAEDLGVYFCSQSTHVPWTFGGGTKLEIK [chain 1 W108K G109L]: not below 10000 nM and 0.219.
For the variant chain 1 EVKLDETGGGLVQPGRPMKLSCVASGFTFSDYWMNWVRQSPEKGLEWVAQIRNKPYNYETYYSDSVKGRFTISRDDSKSSVYLQMNNLRVEDMGIYYCTGSYYGMDYKHQGTSVTVS chain 2 DVVMTQTPLSLPVSLGDQASISCRSSQSLVHSNGNTYLRWYLQKPGQSPKVLIYKVSNRFSGVPDRFSGSGSGTDFTLKISRVEAEDLGVYFCSQSTHVPWTFGGGTKLEIK [chain 1 W108K G109H], the dissociation constant Kd with fluorescein was not below 10000 nM. In data set [1], the yeast surface expression amounted to 0.44.
The matching figures for chain 1 EVKLDETGGGLVQPGRPMKLSCVASGFTFSDYWMNWVRQSPEKGLEWVAQIRNKPYNYETYYSDSVKGRFTISRDDSKSSVYLQMNNLRVEDMGIYYCTGSYYGMDYHCQGTSVTVS chain 2 DVVMTQTPLSLPVSLGDQASISCRSSQSLVHSNGNTYLRWYLQKPGQSPKVLIYKVSNRFSGVPDRFSGSGSGTDFTLKISRVEAEDLGVYFCSQSTHVPWTFGGGTKLEIK [chain 1 W108H G109C]: not below 10000 nM and 0.362.
Turning to chain 1 EVKLDETGGGLVQPGRPMKLSCVASGFTFSDYWMNWVRQSPEKGLEWVAQIRNKPYNYETYYSDSVKGRFTISRDDSKSSVYLQMNNLRVEDMGIYYCTGSYYGMDYLIQGTSVTVS chain 2 DVVMTQTPLSLPVSLGDQASISCRSSQSLVHSNGNTYLRWYLQKPGQSPKVLIYKVSNRFSGVPDRFSGSGSGTDFTLKISRVEAEDLGVYFCSQSTHVPWTFGGGTKLEIK [chain 1 W108L G109I], the dissociation constant Kd with fluorescein was not below 10000 nM. Besides, in data set [1], the yeast surface expression worked out at 0.203.
For chain 1 EVKLDETGGGLVQPGRPMKLSCVASGFTFSDYWMNWVRQSPEKGLEWVAQIRNKPYNYETYYSDSVKGRFTISRDDSKSSVYLQMNNLRVEDMGIYYCTGSYYGMDYIFQGTSVTVS chain 2 DVVMTQTPLSLPVSLGDQASISCRSSQSLVHSNGNTYLRWYLQKPGQSPKVLIYKVSNRFSGVPDRFSGSGSGTDFTLKISRVEAEDLGVYFCSQSTHVPWTFGGGTKLEIK [chain 1 W108I G109F], in that order: 20 nM and 0.186.

In general, Kd refers to the free concentration of one partner at which half of the binding sites on the other are occupied at equilibrium, for simple one-to-one binding.
